Columns and labels:
[1] = substrate: C[S+](C)(=O)CCC(=O)[O-]; experiment: HPLC of DMSO, initial rates, non-linear fit; assay type: biochemical, Psychrobacter sp.; conditions: pH 8, 30 °C, CoA, ATP, Mg2+ present
[2] = substrate: C[S+](C)(=O)CCC(=O)[O-]; experiment: HPLC of acrylate, initial rates, non-linear fit; assay type: biochemical, Alcaligenes faecalis; conditions: pH 8, 30 °C
[3] = substrate: C[S+](C)(=O)CCC(=O)[O-]; experiment: HPLC of acrylate, initial rates, non-linear fit; assay type: biochemical, Emiliania huxleyi; conditions: pH 8, 30 °C
[4] = substrate: C[S+](C)(=O)CCC(=O)[O-]; experiment: HPLC of acrylate, initial rates, non-linear fit; assay type: biochemical, Candidatus Pelagibacter communis; conditions: pH 8, 30 °C
[5] = substrate: C[S+](C)(=O)CCC(=O)[O-]; experiment: HPLC of acrylate, initial rates, non-linear fit; assay type: biochemical, Ruegeria pomeroyi; conditions: pH 8, 30 °C
Excerpt: HPLC of acrylate, initial rates, non-linear fit on DddW | Only the catalytic efficiency of DddW for DMSOP was similar to that for DMSP

B1: DddX (Psychrobacter sp.) (protein)
chain: LTGQIIEYTIKIQTIYTGNFKHKNGFLKMIERGIAMKKENLKILAKKAQTIAIVGANYRFATRVLLENLDKMDFTGTIYLVNPRYENIDGVRCYQSLLEIEDTIDVVVGLVNPQLMIQVASNASKINAKVLVIPGGGYGESGVEGQNIQNAILERAADSGMRIVGPNCMGYLNMHAQFTPYIGTLHRPLRPIKKGPVSIISQSGSVNDAFIASKLGISKIYSTGNEADVQMHDYLNLLAEDPETSVIILYIEAIRNHLSFLRALDLCSKNKKPVIAIKVGRTIKSAAVANAHSGALAGDYEIEKLFLEGHGVLFVEDIDQAVAVALLLSQPYLPTVNTVAALTVSGGQAGILLDLAEDYGVDFPDFSAVTNYEIASKLPELGGLSNPLDIWGKSSKDFSEVSNICLSSIVKDADIGIITVAIDAPIGQGDHEFDFTSIPAKDLASLRGNSDKPFLYFSHIQTEFDPRVESILDEAGIAVIQGSRNALVACRALFKYKEFLEKNNHTPIYSVEDLSIQKGLKLLHDNEGRKLLDESGFVSPREQVVTSLQEGVDYAESIGYPVVLKAQGLAHKTDVGGVALNIKSAAKLKKAWGKMEHLNSPYYLIQEMVTDGFETILAYRTDMNYGPVVIFGLGGIYTELFNEVVLAVPPITHKKAEQMVKSIPMLWKSIEGYRGNPALDLEALTASIVQMGETAMEKYEEIVEFEINPLSVRVKGVVALDVLASVKTTAAKEADAEEADVKKCSELV
notes: pET-22b, C-terminal His tag, E. coli BL21(DE3); Ni-NTA and gel filtration
For B1, the Km [1] was 1 ± 0.2 mM.

B2: A. faecalis DddY (Alcaligenes faecalis) (protein)
chain: AQFQCQDDVKPAAISAEEQKLVDQFWAESLVYLEQYLKALETPTGQCKDSAQATIQTYHSETGKAQTRCIMKYRDMELLAKHLKAVLAEPDKAKACFDPQKNYKEFTLYTPSSQVQQLSATSTWINRPLLTDYYTKMGGAIGAAGLELNENFLAITSRTDTTAHWTRDVSIKGLPTLWSSVGWVPLYAENPAAGSDRFRGGYLYAELMGPWGNLRIKEINGEKVGAEIGMTVQLFNTSYPFHYHHPQETYMTLTKPQCVDQNKYMVMHWDSDQFTQTRSDKGWTVEIDGSKERWKKWFANQDVNKEWLTYFERNAIHAFHALEGCNQTIQNSGLVAVWARSTSQDNEQFTQLCRPASGPDGVKRMRPGQKTVCDVRDWKP
notes: as for B1
B2 gave a Km [2] of 41.0 mM and a kcat [2] of 26.5 s⁻¹.

B3: Alma1 (Emiliania huxleyi) (protein)
chain: MGNCTSHPHHEPQVHFDTVDGMATVKAFAGIRQVTMGVLRIDYEYQTNLGDILDPRSFDFRIISATAEGLTFAKAKAGDKLDATGKELLERAVRQLIDNGADFIVGDCGFLVYWQVMVRDYAQDYAQKKYGRKCPVMMSSLVLALPLLATIPSGGQIGILTASEKSLQAVQKKLPIVIEDHQKEDGGQRSRSVPAAEDPSGIMINFSDPRFKVVGLDEVKDFKHALDAQGADAVNDRRDIAVQIAAYCQKVQEKNPQIAAWLIECTEAGGFAWAIKVGTGLPVWDPITLGRFLSLGFTANVPNVALTLGQHGENPLDPSATTAGKGRCTGEEPGQIHALGAEFQAIREGTL
notes: as for B1
Protein B3 has a Km [3] of 8.8 ± 1.1 mM and a kcat [3] of 0.2 ± 0.01 s⁻¹.

B4: DddK (Candidatus Pelagibacter ubique HTCC1062) (protein)
chain: MIFVKNLASVLSQEWSSTEKYPGVRWKFLIDADFDGSSGLSLGFAEIAPGGDLTLHYHSPAEIYVVTNGKGILNKSGKLETIKKGDVVYIAGNAEHALKNNGKETLEFYWIFPTDRFSEVEYFPAKQKSG
notes: pET-22b, C-terminal His tag, E. coli BL21(DE3); Ni-NTA and gel filtration; dimer in asymmetric unit; Mn2+
For B4, the Km [4] was 24.1 ± 3.4 mM and the kcat [4] was 14.8 ± 0.9 s⁻¹.

B5: DddW (Ruegeria pomeroyi DSS-3) (protein)
chain: MTAMLDSFATDLTAATSLHQPGNLPHPPHAIDAENVPLSGGTDPTYGEVRWRTLINGTEAAPRDMVLGIAEFGPGHQLRPHRHTPPEFYLGLEGSGIVTIDGVPHEIRAGVALYIPGDAEHGTVAGPEGLRFAYGFASASFEAIEYRFTASA
notes: pET-22b, C-terminal His tag, E. coli BL21(DE3)
B5 showed a Km [5] of 11.2 ± 1.6 mM and a kcat [5] of 26.7 ± 3.9 s⁻¹.
